Source: patent publication US20020197661

Target: T1, Acetyl-Prolyl-Arginyl-Asparaginyl-Lysyl-aminoacetamide coumarin (Ac-PRNK-ACC)
T1 chain: PRNK

B1: bovine factor Xa protease (Promega) (protein)
chain: ANSFLEEVKQGNLERECLEEACSLEEAREVFEDAEQTDEFWSKYKDGDQCEGHPCLNQGHCKDGIGDYTCTCAEGFEGKNCEFSTREICSLDNGGCDQFCREERSEVRCSCAHGYVLGDDSKSCVSTERFPCGKFTQGRSRRWAIHTSEDALDASELEHYDPADLSPTESSLDLLGLNRTEPSAGEDGSQVVRIVGGRDCAEGECPWQALLVNEENEGFCGGTILNEFYVLTAAHCLHQAKRFTVRVGDRNTEQEEGNEMAHEVEMTVKHSRFVKETYDFDIAVLRLKTPIRFRRNVAPACLPEKDWAEATLMTQKTGIVSGFGRTHEKGRLSSTLKMLEVPYVDRSTCKLSSSFTITPNMFCAGYDTQPEDACQGDSGGPHVTRFKDTYFVTGIVSWGEGCARKGKFGVYTKVSNFLKWIDKIMKARAGAAGSRGHSEAPATWTVPPPLPL
cleavage of the fluorogenic substrate (fluorescence, excitation 355 nm, emission 460 nm): Ac-PRNK-ACC (SEQ. ID. NO: 12) is a specific substrate for tryptase in relation to other blood borne serine proteases
